Source: patent US20120117670A1 (U3 PHARMA, published 2012)
Blank lines part the entries; values can stand above or below the binder they belong to.

Columns and labels:
[1] = target: T1, Human AXL-Fc (R&D Systems, #154-AL) (human, UniProt P30530 26-451); experiment: ELISA on plate-adsorbed human AXL-Fc (1 ug/ml), 5-fold antibody dilution series, AP-conjugated goat anti-human IgG, fluorescent substrate (Example 13)
T1 construct: Bought reagent; also called human AXL-Fc fusion protein; human AXL-Fc protein; not shown: Fc part of the bought fusion protein
T1 sequence: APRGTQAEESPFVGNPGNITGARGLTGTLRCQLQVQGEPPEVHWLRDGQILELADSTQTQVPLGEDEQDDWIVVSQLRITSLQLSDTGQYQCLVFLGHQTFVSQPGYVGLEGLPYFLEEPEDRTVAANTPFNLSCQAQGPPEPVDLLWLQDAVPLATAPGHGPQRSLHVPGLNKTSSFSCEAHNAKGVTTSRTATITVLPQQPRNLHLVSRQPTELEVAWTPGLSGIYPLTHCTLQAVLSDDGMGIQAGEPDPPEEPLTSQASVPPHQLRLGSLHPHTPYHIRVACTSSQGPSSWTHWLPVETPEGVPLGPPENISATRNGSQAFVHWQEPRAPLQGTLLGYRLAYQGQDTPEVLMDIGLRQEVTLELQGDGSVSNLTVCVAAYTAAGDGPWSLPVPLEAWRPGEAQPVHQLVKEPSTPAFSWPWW

[2] = target: T2, human receptor tyrosine kinase AXL (human, UniProt P30530 26-894); experiment: FACS Scatchard on human AXL overexpressing NIH3T3 cells; apparent KD (KDapp)
T2 construct: also called hAXL; human AXL on NIH3T3-AXL cI.7, RatI-AXL cI.2 and human cancer cell lines
T2 sequence: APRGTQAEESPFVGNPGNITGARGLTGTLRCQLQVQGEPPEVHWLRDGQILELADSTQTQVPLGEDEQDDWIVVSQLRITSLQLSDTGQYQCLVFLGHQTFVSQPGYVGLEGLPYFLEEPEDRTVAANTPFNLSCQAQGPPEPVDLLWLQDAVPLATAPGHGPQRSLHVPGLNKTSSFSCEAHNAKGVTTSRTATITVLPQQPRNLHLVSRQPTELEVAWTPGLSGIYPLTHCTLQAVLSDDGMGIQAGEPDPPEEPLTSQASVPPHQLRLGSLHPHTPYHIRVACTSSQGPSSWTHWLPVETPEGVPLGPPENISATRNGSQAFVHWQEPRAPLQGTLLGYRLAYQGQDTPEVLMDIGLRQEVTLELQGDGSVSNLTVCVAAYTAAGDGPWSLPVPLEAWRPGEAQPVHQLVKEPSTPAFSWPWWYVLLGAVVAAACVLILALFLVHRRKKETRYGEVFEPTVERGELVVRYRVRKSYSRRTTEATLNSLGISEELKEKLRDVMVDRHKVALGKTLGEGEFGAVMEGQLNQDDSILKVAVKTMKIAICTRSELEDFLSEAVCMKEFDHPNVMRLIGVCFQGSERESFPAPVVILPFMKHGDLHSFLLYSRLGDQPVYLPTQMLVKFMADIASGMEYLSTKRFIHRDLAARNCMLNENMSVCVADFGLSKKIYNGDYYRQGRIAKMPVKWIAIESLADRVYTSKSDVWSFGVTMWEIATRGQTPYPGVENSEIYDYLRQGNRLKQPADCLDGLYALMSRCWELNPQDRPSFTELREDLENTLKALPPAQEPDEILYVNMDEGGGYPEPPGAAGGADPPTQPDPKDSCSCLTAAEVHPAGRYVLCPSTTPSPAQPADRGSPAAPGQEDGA
Description: Human AXL overexpression NIH3T3 cells were harvested by incubation with 10 mM EDTA in PBS and resuspended at 6 million cells per ml in FACS buffer (PBS pH 7.4, 3% FCS, 0.1% NaN3). In a round-bottom microtiter plate, 100 μl of cell suspension were added to 100 μl of antibody solution containing antibodies 11B7, 11D5, ch11B7-IgG1, ch11B7-IgG2, ch11D5-IgG1 or ch11D5-IgG2 at concentrations between 40 and 0.002 μg/ml (266 and 0.01 nM) in FACS buffer. Antibody binding was allowed to proceed for 2 hours on ice. Then, cells were washed twice with 250 μl FACS buffer per well, and resuspended in 200 μl of secondary antibody (anti-rat-PE; Jackson) diluted 1:50 in FACS buffer. After 45 minutes of incubation, cells were again washed twice in FACS buffer and resuspended in […] PBS for FACS analysis. Analysis was carried out on a Beckman-Coulter FACS FC500. To determine the apparent affinity constant KDapp, mean fluorescence values were plotted against the ratio of mean fluorescence and the corresponding antibody concentration ([M]). The calculated KDapp resulted from the inverse slope of the straight line are listed below: […]

[3] = target: T3, NHis-hAXL26-131 (human AXL single IG domain) (human, UniProt P30530 33-138); experiment: ELISA on plate-adsorbed human AXL IG-domain fragment (1 ug/ml), antibody at 0.04 ug/ml, fluorescent substrate (Example 16)
T3 construct: Made in E. coli; tag kept
Description: Then, each solution was dispensed in the amount of […] to an Immuno Plate (manufactured by Nalge Nunc International K.K., #437111) and left standing overnight at 4° C. to adsorb the peptide onto the plate. On the next day, the wells were washed 5 times with a PBS-T solution (PBS and 0.05% (v/v) Tween 20). Then, a solution containing skim milk (manufactured by Morinaga Milk Industry Co., Ltd.) diluted with PBS to 5% was dispensed in an amount of 100 μl/well and left standing at room temperature for 2 hours. The solutions in the wells were removed, and the wells were washed 5 times with a PBS-T solution. The rat anti-human AXL monoclonal antibody #11B7 was diluted to 0.04 μg/ml with a PBS solution containing 0.5% skim milk. Then, the solution was dispensed in amount of 100 μl/well and left standing at room temperature for 2 hours. The wells were washed 5 times with a PBS-T solution. […] Then, a fluorescent substrate solution (manufactured by Roche Diagnostics K.K., #11681982001) was added in the amount of 100 μl/well to perform fluorescence reaction. The fluorescence intensity on the human AXL-IG domain-adsorbed plate was measured 15 minutes after the addition of the fluorescent substrate solution using a SpectraMax M5 (manufactured by Molecular Devices Corp.). […]

[4] = target: T1, Human AXL-Fc (R&D Systems, #154-AL); experiment: ELISA on plate-adsorbed human AXL-Fc (1 ug/ml), 5-fold antibody dilution series, AP-conjugated goat anti-human IgG, fluorescent substrate (Example 14)

EC50 (read off the curve) [1]: ~0.02 µg/mL
Kd [2]: 0.6 nM
B1: chimeric anti-AXL antibody ch11B7-IgG1 (antibody, V domains shown)
VH: EVQLQESGPGLVKPSQSLSLTCSVTGYSITSNYWGWIRKFPGDKMEWMGYITYSGSTSYNPSLKSRISITRDTSKNQFFLQLNSVTSEDTATYYCAITTFYYWGQGVMVTVSS
VL: DIQMTQAPSSLPASLGDRVTITCRASQDIGNYLRWFQQKPGKSPRLMISGATNLAAGVPSRFSGSRSGSDYSLTISSLESEDMADYYCLQSKESPWTFGGGTKLELKR
notes: Rat/human chimera, human IgG1/kappa; also called chm11B7; chimeric anti-AXL mAb #11B7

binding result [3]: no binding (tested: 0.04 ug/ml)
Kd [2]: 0.38 nM
B2: rat anti-human AXL monoclonal antibody #11B7 (antibody, rat IgG1, V domains shown)
VH: B1 VH
VL: B1 VL
notes: Rat IgG1/kappa from hybridoma; also called I11B7; rat anti-AXL antibody 11B7

Kd [2]: 0.4 nM
EC50 (read off the curve) [4]: ~0.01 µg/mL
B3: chimeric anti-AXL antibody ch11D5-IgG1 (antibody, V domains shown)
VH: EVQLQESGPGLVKPSQSLSLTCSVTGYSITSNYWGWIRKFPGNKMEWIGHITNSGNTTYNPSLKSRISISRDTSRNQFFLQLNSVTTEDTATYYCAKGAFDYWGQGVMVTVSS
VL: DIQMTQSPSSMSTSLGDRVTITCRASQDIGNYLSWFQQKVGKSPRRMIYGAIKLAVGVPSRFSGSRSGSDYSLTISSLESEDMAIYYCLQYIQFPLTFGSGTKLELKR
notes: Rat/human chimera, human IgG1/kappa; also called chm11D5; human chimeric antibody

Kd [2]: 0.81 nM
B4: rat anti-human AXL monoclonal antibody #11D5 (antibody, rat IgG2a, V domains shown)
VH: B3 VH
VL: B3 VL
notes: Rat IgG2a/kappa from hybridoma; also called III11D5
